Measured values taken from article PMC3342256.

Columns and labels:
[1] = target: Plasmodium falciparum P2 (PfP2), recombinant histidine-tagged full length protein (Plasmodium falciparum) (UniProt O00806); experiment: dynamic light scattering; PfP2 40 to 180 µM in Tris buffer, pH 7.5, 25°C, freshly prepared samples; size from a calibration of hydrodynamic diameter against molecular weight
[2] = target: Plasmodium falciparum P2 (PfP2), recombinant histidine-tagged full length protein (Plasmodium falciparum) (UniProt O00806); experiment: multi-angle light scattering; PfP2 250 to 400 µM, freshly prepared sample, HELEOS 8 Wyatt instrument, BSA as standard

- stoichiometry N [1]: 8 to 9
- stoichiometry N [2]: 7 to 8
Substance: Plasmodium falciparum P2 (PfP2), recombinant histidine-tagged full length protein (from UniProt O00806 1-112) (natural protein)
